For assay [1], the target named is TLR2 on human monocytes (human) (UniProt O60603). Kind of assay: flow cytometry on monocytes, Sample 1, instrument setting FL534.
Assay [2] has the same target. Kind of assay: flow cytometry on monocytes, Sample 1, antibody at 3 µg/mL.
For assay [3] the target is unchanged. Nature of the assay: flow cytometry on monocytes of a patient's blood sample, 3 µg/mL PE-labeled antibody.
For assay [4] the target is unchanged. Nature of the assay: flow cytometry on monocytes, Sample 3, instrument setting FL534.
Assay [5] has the same target. Nature of the assay: flow cytometry on monocytes, Sample 3, antibody at 1 µg/mL.
The target is the same in assay [6]. Kind of assay: flow cytometry on monocytes, Sample 2, instrument setting FL634.
Assay [7] has the same target. Kind of assay: flow cytometry on monocytes, Sample 2, antibody at 1 µg/mL.
The target is the same in assay [8]. Nature of the assay: flow cytometry on monocytes, MFI of anti-TLR2 antibody minus MFI of control antibody.
Assay [9] shares this target. Kind of assay: flow cytometry on monocytes, Sample 2, antibody at 3 µg/mL.
Assay [10] shares this target. Kind of assay: flow cytometry on monocytes, Sample 3, antibody at 3 µg/mL.
For assay [11] the target is unchanged. Nature of the assay: flow cytometry on monocytes, Sample 3, instrument setting FL634.
For assay [12] the target is unchanged. Nature of the assay: flow cytometry on monocytes, Sample 1, instrument setting FL634.
The target is the same in assay [13]. Nature of the assay: flow cytometry on monocytes, Sample 2, instrument setting FL534.
Assay [14] shares this target. Kind of assay: flow cytometry on monocytes, Sample 1, antibody at 1 µg/mL.
For assay [15] the target is unchanged. Kind of assay: flow cytometry on monocytes of a patient's blood sample, 3 µg/mL PE-labeled control antibody.

Sequence of UniProt O60603 (O60603 21-784): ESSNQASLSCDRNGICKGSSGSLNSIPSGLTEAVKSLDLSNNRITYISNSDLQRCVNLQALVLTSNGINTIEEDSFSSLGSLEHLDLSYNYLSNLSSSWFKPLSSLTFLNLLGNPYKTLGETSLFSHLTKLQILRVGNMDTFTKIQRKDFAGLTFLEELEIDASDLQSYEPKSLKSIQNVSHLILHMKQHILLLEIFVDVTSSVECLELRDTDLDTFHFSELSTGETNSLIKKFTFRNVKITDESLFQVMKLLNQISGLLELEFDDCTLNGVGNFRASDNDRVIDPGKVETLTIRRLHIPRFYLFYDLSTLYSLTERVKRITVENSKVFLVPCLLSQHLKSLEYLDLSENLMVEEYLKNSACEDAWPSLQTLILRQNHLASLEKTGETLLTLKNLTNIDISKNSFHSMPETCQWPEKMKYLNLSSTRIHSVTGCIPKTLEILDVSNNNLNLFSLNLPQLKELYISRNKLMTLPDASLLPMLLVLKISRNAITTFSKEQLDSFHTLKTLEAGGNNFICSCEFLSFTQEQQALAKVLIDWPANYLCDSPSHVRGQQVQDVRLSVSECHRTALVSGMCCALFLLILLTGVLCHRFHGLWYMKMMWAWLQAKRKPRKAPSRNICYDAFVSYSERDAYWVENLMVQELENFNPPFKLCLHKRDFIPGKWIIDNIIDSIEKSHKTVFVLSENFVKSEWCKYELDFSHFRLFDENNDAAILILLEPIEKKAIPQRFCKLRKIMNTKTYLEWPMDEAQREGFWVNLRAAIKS

For “PE-bound anti-TLR2 monoclonal antibody (clone name: T2.1, product of eBioscience)”, the Delta MFI worked out at 77.5 MFI in assay [1]; 77.5 MFI in assay [2]; 68.7 MFI in [4]; 40.4 MFI in assay [5]; 340 MFI in [6]; 54.1 MFI in assay [7]. In addition, the Delta MFI in assay [8] came to 92.6 MFI; in assay [9] it was 88 MFI; in assay [10], 68.7 MFI; in assay [11], 273 MFI; in assay [12], 286 MFI; in assay [13], 88 MFI. Besides, in assay [14], the Delta MFI stood at 53.7 MFI. Also, the MFI in assay [3] amounted to 104 MFI.
Turning to “PE-labeled control (mouse IgG2a) antibody”, in assay [15], the MFI amounted to 11.7 MFI.

Values taken from US20100015643A1.
